How the values were obtained:
IL-4Rα (CD124) = target: T1, IL-4Rα (CD124) (UniProt P24394 26-232); experiment: SPR; IL-4Rα immobilised by amine coupling on a carboxymethyl dextran chip (2000±400 RU); AP1 peptide 3.125 to 50 µM, [AP1-V12]6 125 nM to 1 µM, [V14]6 1 µM flowed for 3 min at 25 µL/min; 25°C; kinetic fits with Scrubber 2; details: both partners purified
T1 construct: interleukin-4 receptor alpha chain (CD124), recombinant protein bought from Sino Biological; No catalogue number is printed; also called IL-4 receptor; source: bought: Sino Biological
T1 sequence (looked up): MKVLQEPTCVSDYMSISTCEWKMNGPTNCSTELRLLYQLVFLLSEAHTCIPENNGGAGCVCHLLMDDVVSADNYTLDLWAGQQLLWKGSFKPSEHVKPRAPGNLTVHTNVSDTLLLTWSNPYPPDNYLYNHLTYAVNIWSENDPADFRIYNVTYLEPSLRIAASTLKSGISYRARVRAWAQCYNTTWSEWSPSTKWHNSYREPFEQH

[1] = target: T2, IL-4 receptor on H226 and MDA-MB-231 cancer cells (human (endogenous in H226 and …, UniProt P24394 26-825)); experiment: flow cytometry on cells; 10 µM Alexa 488-labelled polymer or peptide, 1 h at 4°C, on H226 and MDA-MB-231 cells (IL-4R highly expressed) after blocking with 2% BSA; H460 cells as IL-4R negative control; details: one partner purified
T2 construct: interleukin-4 receptor as expressed on the surface of human cancer cell lines; On cells the alpha chain may stand with other receptor chains; source: endogenous, on H226 and MDA-MB-231 cells
T2 sequence (looked up): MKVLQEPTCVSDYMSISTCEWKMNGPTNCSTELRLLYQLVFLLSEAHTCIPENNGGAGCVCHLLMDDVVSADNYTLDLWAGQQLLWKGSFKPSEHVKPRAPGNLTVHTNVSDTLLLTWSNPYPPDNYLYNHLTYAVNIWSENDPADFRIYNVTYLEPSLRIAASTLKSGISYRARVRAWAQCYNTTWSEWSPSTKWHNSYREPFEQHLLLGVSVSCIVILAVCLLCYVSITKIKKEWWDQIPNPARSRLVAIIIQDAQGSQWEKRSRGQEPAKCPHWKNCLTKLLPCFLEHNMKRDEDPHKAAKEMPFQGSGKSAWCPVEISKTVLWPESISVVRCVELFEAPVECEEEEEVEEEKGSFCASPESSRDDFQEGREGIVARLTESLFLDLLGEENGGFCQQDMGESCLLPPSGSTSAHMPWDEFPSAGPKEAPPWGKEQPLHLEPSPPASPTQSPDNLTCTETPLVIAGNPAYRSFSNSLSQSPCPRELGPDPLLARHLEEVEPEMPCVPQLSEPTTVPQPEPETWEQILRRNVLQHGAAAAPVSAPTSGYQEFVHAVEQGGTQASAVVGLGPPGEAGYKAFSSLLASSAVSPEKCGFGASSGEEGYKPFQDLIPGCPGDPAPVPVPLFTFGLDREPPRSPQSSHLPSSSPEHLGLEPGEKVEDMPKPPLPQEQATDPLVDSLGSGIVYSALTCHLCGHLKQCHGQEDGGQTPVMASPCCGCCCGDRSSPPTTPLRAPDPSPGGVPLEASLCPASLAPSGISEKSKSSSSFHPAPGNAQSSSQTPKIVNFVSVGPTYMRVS

B1: [AP1-V12]6 polymer, SGPG[VGRKRLDRNG(VGVPG)12]6WPC (designed binder)
chain: SGPGVGRKRLDRNGVGVPGVGVPGVGVPGVGVPGVGVPGVGVPGVGVPGVGVPGVGVPGVGVPGVGVPGVGVPGVGRKRLDRNGVGVPGVGVPGVGVPGVGVPGVGVPGVGVPGVGVPGVGVPGVGVPGVGVPGVGVPGVGVPGVGRKRLDRNGVGVPGVGVPGVGVPGVGVPGVGVPGVGVPGVGVPGVGVPGVGVPGVGVPGVGVPGVGVPGVGRKRLDRNGVGVPGVGVPGVGVPGVGVPGVGVPGVGVPGVGVPGVGVPGVGVPGVGVPGVGVPGVGVPGVGRKRLDRNGVGVPGVGVPGVGVPGVGVPGVGVPGVGVPGVGVPGVGVPGVGVPGVGVPGVGVPGVGVPGVGRKRLDRNGVGVPGVGVPGVGVPGVGVPGVGVPGVGVPGVGVPGVGVPGVGVPGVGVPGVGVPGVGVPGWPC
notes: The vector's insert begins with an ATG; also called [AP1-V12]6 protein; targeted [AP1-V12]6 polymer; source: E. coli BL21 (DE3), purified (four rounds of inverse transition cycling)
Work on B1 yielded a koff (IL-4Rα (CD124)) of 0.00125 s⁻¹ and a kon (IL-4Rα (CD124)) of 5810 M⁻¹ s⁻¹.

B2: AP1 peptide (peptide)
peptide: CRKRLDRN
notes: peptide found earlier by phage display screening, termed AP1; also called free AP1 peptide
B2 showed a koff (IL-4Rα (CD124)) of 0.17 s⁻¹ and a kon (IL-4Rα (CD124)) of 35 M⁻¹ s⁻¹.

B3: Alexa 488-labeled [AP1-V12]6 (designed binder)
chain: SGPGVGRKRLDRNGVGVPGVGVPGVGVPGVGVPGVGVPGVGVPGVGVPGVGVPGVGVPGVGVPGVGVPGVGVPGVGRKRLDRNGVGVPGVGVPGVGVPGVGVPGVGVPGVGVPGVGVPGVGVPGVGVPGVGVPGVGVPGVGVPGVGRKRLDRNGVGVPGVGVPGVGVPGVGVPGVGVPGVGVPGVGVPGVGVPGVGVPGVGVPGVGVPGVGVPGVGRKRLDRNGVGVPGVGVPGVGVPGVGVPGVGVPGVGVPGVGVPGVGVPGVGVPGVGVPGVGVPGVGVPGVGRKRLDRNGVGVPGVGVPGVGVPGVGVPGVGVPGVGVPGVGVPGVGVPGVGVPGVGVPGVGVPGVGVPGVGRKRLDRNGVGVPGVGVPGVGVPGVGVPGVGVPGVGVPGVGVPGVGVPGVGVPGVGVPGVGVPGVGVPGWPC
modifications: Alexa Fluor 488-C5 maleimide on the C-terminal Cys residue
notes: as m1; The labelled form of m1, used on cells (flow cytometry, confocal microscopy); also called Alexa-labeled [AP1-V12]6; targeted [AP1-V12]6 polymer; source: E. coli BL21 (DE3), purified (four rounds of inverse transition cycling), then labelled
With B3 the “fold cell attachment, H226 cells over H460 cells” value [1] was 5.9 ± 1.6 fold and the “fold cell attachment, MDA-MB-231 cells over H460 cells” value [1] was 5.6 ± 1.3 fold.

From publication PMC3858272, “Construction and Application of Elastin Like Polypeptide Containing IL-4 Receptor Targeting Peptide” (PLoS ONE, 2013)
